In test [1] the target is T1, human PD-L1 (human, UniProt Q9NZQ7 19-290).
T1 construct: whole, on cells
Description: flow cytometry, SCC152 cells transduced with human PD-L1, anti-human Fc detection. The method, then:
(§1) Binding affinity to CD28 was determined using primary human T cells which endogenously express CD28. Binding to PD-L1 was determined using SCC152 cells transduced with human PD-L1. Binding to CTLA-4 was measured using Chinese hamster ovary (CHO) cells stably transduced to express human CTLA-4.
(§2) For staining and analysis by flow cytometry, 75,000 human T cells, SCC152/PD-L1 cells, or CHO/CTLA-4 cells were plated in 96-well round-bottom plates. Cells were spun down and resuspended in staining buffer (PBS (phosphate buffered saline), 1% BSA (bovine serum albumin), 1 mM EDTA, and 0.1% sodium azide) for 20 minutes to block non-specific binding. Afterwards, cells were centrifuged, stain buffer aspirated, and then resuspended in 50 μL of a 1:5 serial dilution of each CD80-Fc candidate variant starting at 100 nM ending at 0.8 nM. Primary staining was performed on ice for 60 minutes, before washing cells in […] staining buffer three times. PE-conjugated anti-human Fc (Jackson ImmunoResearch, USA) was diluted 1:250 in 50 μL staining buffer and added to cells and incubated another 30 minutes at 4° C. Cells were washed two times in 150 μL stain buffer and then fixed in 2% formaldehyde/PBS for 5 minutes at room temperature. Samples were analyzed CytoFLEX LX flow cytometer (Beckman Coulter, USA). Median Fluorescence Intensity (MFI) was calculated for each cell type using the CytExpert software from Beckman Coulter.
(§3) Binding assays were carried out to assess the specificity and affinity of multivalent proteins to cell-expressed CTLA-4, CD28, and PD-L1 counter structures.
(In general: A flow cytometer gives signals particle by particle.)

Test [2] deals with T1, human PD-L1. As to the kind of experiment: flow cytometry, SCC152 cells transduced with human PD-L1; MFI against WT CD80 ECD-Fc. The method, then: as §1, §2, §3

T1 sequence (Q9NZQ7 19-290): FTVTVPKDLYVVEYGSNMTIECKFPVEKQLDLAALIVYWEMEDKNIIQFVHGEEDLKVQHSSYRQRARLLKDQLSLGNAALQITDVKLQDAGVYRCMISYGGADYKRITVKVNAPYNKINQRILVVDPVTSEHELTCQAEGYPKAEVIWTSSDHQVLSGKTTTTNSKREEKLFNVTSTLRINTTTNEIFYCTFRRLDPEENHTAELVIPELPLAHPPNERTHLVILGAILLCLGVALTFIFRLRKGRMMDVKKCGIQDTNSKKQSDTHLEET

B1: CD80-Fc-CD80_339 (CD80_185 V11Y/T28Y/M47L) (Fc fusion)
chain: VIHVTKEVKEYATLSCGHNVSVEELAQYRIYWQKEKKMVLTMMSGDLNIWPEYKNRTIFDITNNLSIVILALRPSDEGTYECVVLKYEKDAFKREHLAEVTLSVKADGSGGGGSPCPPCPAPEFLGGPSVFLFPPKPKDTLMISRTPEVTCVVVDVSQEDPEVQFNWYVDGVEVHNAKTKPREEQFNSTYRVVSVLTVLHQDWLNGKEYKCKVSNKGLPSSIEKTISKAKGQPREPQVYTLPPSQEEMTKNQVSLTCLVKGFYPSDIAVEWESNGQPENNYKTTPPVLDSDGSFFLYSRLTVDKSRWQEGNVFSCSVMHEALHNHYTQKSLSLSLGGGGGSGGGGSGGGGSVIHVTKEVKEYATLSCGYNVSVEELAQYRIYWQKEKKMVLTMMSGDLNIWPEYKNRTIFDITNNLSIVILALRPSDEGTYECVVLKYEKDAFKREHLAEVTLSVKAD
notes: tetravalent
Take B1: in the test with human PD-L1 [1], the “Anti-Human Fc (MFI) at 0.8 nM” value stood at 4180 MFI, the “Anti-Human Fc (MFI) at 4 nM” value is 6180 MFI, the “Anti-Human Fc (MFI) at 20 nM” value is 7120 MFI and the “Anti-Human Fc (MFI) at 100 nM” value was 8090 MFI. Moreover, in the test with human PD-L1 [2], the “Fold change vs WT CD80 @20 nM” value was determined as 10.4 fold.

B2: CD80-Fc-CD80_341 (CD80_197 V11Y/E35D/Y87Q/T101R) (Fc fusion)
chain: VIHVTKEVKEYATLSCGHNVSVEELAQTRIYWQKDKKMVLTMMSGDMNIWPEYKNRTIFDITNNLSIVILALRPSDEGTYECVVLKQEKDAFKREHLAEVRLSVKADGSGGGGSPCPPCPAPEFLGGPSVFLFPPKPKDTLMISRTPEVTCVVVDVSQEDPEVQFNWYVDGVEVHNAKTKPREEQFNSTYRVVSVLTVLHQDWLNGKEYKCKVSNKGLPSSIEKTISKAKGQPREPQVYTLPPSQEEMTKNQVSLTCLVKGFYPSDIAVEWESNGQPENNYKTTPPVLDSDGSFFLYSRLTVDKSRWQEGNVFSCSVMHEALHNHYTQKSLSLSLGGGGGSGGGGSGGGGSVIHVTKEVKEYATLSCGYNVSVEELAQTRIYWQKDKKMVLTMMSGDMNIWPEYKNRTIFDITNNLSIVILALRPSDEGTYECVVLKQEKDAFKREHLAEVRLSVKAD
notes: tetravalent
For the molecule B2, in the test with human PD-L1 [1], the “Anti-Human Fc (MFI) at 0.8 nM” value was found to be 4750 MFI, the “Anti-Human Fc (MFI) at 4 nM” value came out at 6410 MFI, the “Anti-Human Fc (MFI) at 20 nM” value came out at 7100 MFI and the “Anti-Human Fc (MFI) at 100 nM” value amounted to 7810 MFI. Further, the “Fold change vs WT CD80 @20 nM” value in the test with human PD-L1 [2] came to 10.4 fold.

For the origin of these results see US20250243260A1 (ALPINE IMMUNE SCIENCES, published 2025).
